We go through 25 molecules from patent publication US20250339569A1 (3B PHARMACEUTICALS, published 2025).

In test [1] the target is T1, Fc-fusion protein of human carbonic anhydrase IX (human, UniProt Q16790 38-414). In words: SPR, captured hCAIX-Fc; pKD category A: >8.0. The method, then:
(§1) Stock solutions of test compounds were prepared by dissolving each compound in DMSO. DMSO stock solution were diluted 1:1000 in Running Buffer without DMSO. […] SPR binding analyses were performed in Single Cycle Kinetic (SCK) mode at 25° C.
(§2) For each test compound, SPR raw data in the form of resonance units (RU) were plotted as sensorgrams using the Biacore™ T200 control software. The signal from the blank sensorgram was subtracted from that of the test compound sensorgram (blank corrected). The blank corrected sensorgram was corrected for baseline drift by subtracting the sensorgram of a SCK run without the test compound (running buffer only). […] Raw data and fit results were imported as text files in IDBS. The pKD value (negative decadic logarithm of dissociation constant) was calculated in the IDBS excel template.
On the technique in general: SPR reads the build-up and loss of mass on a sensor chip optically.

Test [2] deals with T1, Fc-fusion protein of human carbonic …. Nature of the test: SPR, captured hCAIX-Fc; t1/2 category B: 5.1-15.0 min. How it is done: as §1, §2
Test [3] shares this target. In words: SPR, captured hCAIX-Fc; t1/2 category A: >15.0 min. The method, then:
as §1, §2

Starred links: 1 amine or outer side, 2 acyl side, 3 side chain; linkers in the order of their positions; H or OH if unused. Positions of bridges follow the written chain, without caps; N, C: chain ends. Non-standard residues stand in square brackets, D forms with d. Groups on a side chain read outwards from the residue. Primed or numbered codes have the meaning given here. No end group written: not given here. *: point of attachment. Af3(2Py6SaNH) = 3-amino-L-phenylalanine, ring amine acylated by 6-(sulfamoylamino)pyridine-2-carboxylic acid, NS(=O)(=O)Nc1cccc(C(=O)Nc2cccc(C[C@H](N[*:1])C(=O)[*:2])c2)n1; Af3(TzPr) = 3-amino-L-phenylalanine acylated on the ring amine with 3-(1H-1,2,4-triazol-3-yl)propanoic acid, O=C(CCc1nc[nH]n1)Nc1cccc(C[C@H](N[*:1])C(=O)[*:2])c1; Af3(Ac-Glu) = 3-aminophenylalanine acylated on the ring amine with N-acetyl-glutamic acid, CC(=O)N[C@@H](CCC(=O)[*:3])C(=O)Nc1cccc(C[C@H](N[*:1])C(=O)[*:2])c1; APAc″ = 2-(4-(amino)piperidin-1-yl)acetic acid, NC1CCN(CC(=O)*)CC1; DOTA = O=C(O)CN1CCN(CC(=O)O)CCN(CC(=O)*)CCN(CC(=O)O)CC1; Trp(5-Cl) = N[C@@H](Cc1c[nH]c2ccc(Cl)cc12)C(=O)O; PPAc = 4-carboxymethyl piperazine linker; dmo = (R)-dimethylornithine (D form); mXylylene = c1cc(C[*:1])cc(C[*:2])c1; Isovaleryl = CC(C)CC(=O)*; dPip = O=C(O)[C@H]1CCCCN1; AGLU′ = not defined here; Ac6c = NC1(C(=O)O)CCCCC1; dNMeA = CN[C@H](C)C(=O)O; 4Amc = not defined here; APAc = not defined here; Apr = not defined here; Dap = NC[C@H](N)C(=O)O; AEEA = NCCOCCOCC(=O)O; Ttds″ = Ttds spacer; Sar = CNCC(=O)O

For the molecule {DOTA-4Amc}-YCE[dP]DWLTWSC-NH2 (linker 2-11 via mXylylene; reading uncertain) [3BP-3868], the pKD in test [1] was more than 8 pkd. The “t1/2 (half-life of the complex, SPR)” value in test [2] was in the range of 5.1 to 15 min.

B1: 3BP-3289 (peptide)
peptide: Ac-VYCE[Sar]D[Trp(5-Cl)]LTWQC-NH2
modifications: linker 3-12 via mXylylene
SMILES: CC(=O)N[C@H](C(=O)N[C@@H](Cc1ccc(O)cc1)C(=O)N[C@H]1CSCc2cccc(c2)CSC[C@@H](C(N)=O)NC(=O)[C@H](CCC(N)=O)NC(=O)[C@H](Cc2c[nH]c3ccccc23)NC(=O)[C@H]([C@@H](C)O)NC(=O)[C@H](CC(C)C)NC(=O)[C@H](Cc2c[nH]c3ccc(Cl)cc23)NC(=O)[C@H](CC(=O)O)NC(=O)CN(C)C(=O)[C@H](CCC(=O)O)NC1=O)C(C)C
Take B1: the pKD in test [1] is more than 8 pkd. In addition, the “t1/2 (half-life of the complex, SPR)” value in test [2] was in the range of 5.1 to 15 min.

Consider {DOTA-APAc″}-VYCE[dP]D[Af3(Ac-Glu)]LTWSC-NH2 (linker 3-12 via mXylylene) [3BP-4361], for which the pKD in test [1] is more than 8 pkd. For the same molecule, in test [3], the “t1/2 (half-life of the complex, SPR)” value was more than 15 min.

B2: 3BP-3859 (peptide)
peptide: {DOTA}-YCE[dP]DWLTWSC-NH2
modifications: linker 2-11 via mXylylene
SMILES: CC(C)C[C@@H]1NC(=O)[C@H](Cc2c[nH]c3ccccc23)NC(=O)[C@H](CC(=O)O)NC(=O)[C@H]2CCCN2C(=O)[C@H](CCC(=O)O)NC(=O)[C@@H](NC(=O)[C@H](Cc2ccc(O)cc2)NC(=O)CN2CCN(CC(=O)O)CCN(CC(=O)O)CCN(CC(=O)O)CC2)CSCc2cccc(c2)CSC[C@@H](C(N)=O)NC(=O)[C@H](CO)NC(=O)[C@H](Cc2c[nH]c3ccccc23)NC(=O)[C@H]([C@@H](C)O)NC1=O
Regarding B2, the pKD in test [1] was more than 8 pkd. In test [2], the “t1/2 (half-life of the complex, SPR)” value lay within 5.1 to 15 min.

In turn, Isovaleryl-YCE[dP]DWLTWE([Apr-AEEA-DOTA])C-NH2 (linker 2-11 via 3MeBn; reading uncertain) [3BP-3740] returned a pKD in test [1] of more than 8 pkd. In addition, the “t1/2 (half-life of the complex, SPR)” value in test [2] lay in the range of 5.1 to 15 min.

For {DOTA-APAc}-VYCE[dP]DW[Ac6c]TWSC-NH2 (linker 3-12 via mXylylene; reading uncertain) [3BP-3584], the pKD in test [1] was more than 8 pkd. In test [2], the “t1/2 (half-life of the complex, SPR)” value lay in the range of 5.1 to 15 min.

B3: 3BP-3283 (peptide)
peptide: Ac-VYCE[dPip]DWLTWAC-NH2
modifications: linker 3-12 via mXylylene
SMILES: CC(=O)N[C@H](C(=O)N[C@@H](Cc1ccc(O)cc1)C(=O)N[C@H]1CSCc2cccc(c2)CSC[C@@H](C(N)=O)NC(=O)[C@H](C)NC(=O)[C@H](Cc2c[nH]c3ccccc23)NC(=O)[C@H]([C@@H](C)O)NC(=O)[C@H](CC(C)C)NC(=O)[C@H](Cc2c[nH]c3ccccc23)NC(=O)[C@H](CC(=O)O)NC(=O)[C@H]2CCCCN2C(=O)[C@H](CCC(=O)O)NC1=O)C(C)C
The molecule B3 had a pKD in test [1] of more than 8 pkd. For the same molecule, the “t1/2 (half-life of the complex, SPR)” value in test [2] lay within 5.1 to 15 min.

As for {DOTA-APAc″}-VYCE[dP]D[Af3(TzPr)]LTWSC-NH2 (linker 3-12 via mXylylene) [3BP-4324], the pKD in test [1] is more than 8 pkd. In addition, the “t1/2 (half-life of the complex, SPR)” value in test [3] was more than 15 min.

In test [1], Ac-K(DOTA)VYCE[dP]DWLTWSC-NH2 (linker 4-13 via 3MeBn) [3BP-3840] came in with a pKD of more than 8 pkd. The “t1/2 (half-life of the complex, SPR)” value in test [2] was 5.1 to 15 min.

{DOTA-PPAc}-QCE[dP]D[Af3(2Py6SaNH)]LTWSC-NH2 (linker 2-11 via mXylylene) [3BP-4514]: in test [2], the “t1/2 (half-life of the complex, SPR)” value was in the range of 5.1 to 15 min.

In the case of {DOTA-Ttds″}-VYCE[dA]DWLTWAC-NH2 (linker 3-12 via mXylylene; not fully specified) [3BP-3279], in test [1], the pKD was more than 8 pkd. The “t1/2 (half-life of the complex, SPR)” value in test [2] was 5.1 to 15 min.

{DOTA-APAc}-VYCQ[dP]DWLTWSC-NH2 (linker 3-12 via mXylylene; reading uncertain) [3BP-4104]: in test [1], the pKD was more than 8 pkd. The “t1/2 (half-life of the complex, SPR)” value in test [2] is 5.1 to 15 min.

In turn, {DOTA-APAc}-VYCE[dP]DWLTWRC-NH2 (linker 3-12 via mXylylene; reading uncertain) [3BP-3599] had a pKD in test [1] of more than 8 pkd. Further, the “t1/2 (half-life of the complex, SPR)” value in test [2] is 5.1 to 15 min.

Consider {DOTA-APAc}-VE(AGLU′)CE[dP]DWLTWSC-NH2 (linker 3-12 via mXylylene; reading uncertain) [3BP-4112], for which, in test [1], the pKD is more than 8 pkd. For the same molecule, the “t1/2 (half-life of the complex, SPR)” value in test [2] fell in the range of 5.1 to 15 min.

For Ac-VRCE[dP]DWLTWE([Apr-AEEA-DOTA])C-NH2 (linker 3-12 via 3MeBn; reading uncertain) [3BP-3734], the pKD in test [1] was more than 8 pkd. Also, in test [2], the “t1/2 (half-life of the complex, SPR)” value was 5.1 to 15 min.

In test [1], {DOTA-APAc}-VYCE[dE](AGLU′)DWLTWSC-NH2 (linker 3-12 via mXylylene; reading uncertain) [3BP-4119] gave a pKD of more than 8 pkd. In addition, the “t1/2 (half-life of the complex, SPR)” value in test [2] fell in the range of 5.1 to 15 min.

Ac-SYCE[dP]DWLTWE([Apr-AEEA-DOTA])C-NH2 (linker 3-12 via 3MeBn; reading uncertain) [3BP-3732] came in with a pKD in test [1] of more than 8 pkd. For the same molecule, the “t1/2 (half-life of the complex, SPR)” value in test [2] lay within 5.1 to 15 min.

B4: 3BP-3280 (peptide)
peptide: Ac-VYCE[dA]DWLTWAC-NH2
modifications: linker 3-12 via mXylylene
SMILES: CC(=O)N[C@H](C(=O)N[C@@H](Cc1ccc(O)cc1)C(=O)N[C@H]1CSCc2cccc(c2)CSC[C@@H](C(N)=O)NC(=O)[C@H](C)NC(=O)[C@H](Cc2c[nH]c3ccccc23)NC(=O)[C@H]([C@@H](C)O)NC(=O)[C@H](CC(C)C)NC(=O)[C@H](Cc2c[nH]c3ccccc23)NC(=O)[C@H](CC(=O)O)NC(=O)[C@@H](C)NC(=O)[C@H](CCC(=O)O)NC1=O)C(C)C
In the case of B4, in test [1], the pKD was more than 8 pkd. Also, in test [2], the “t1/2 (half-life of the complex, SPR)” value lay within 5.1 to 15 min.

As to Ac-SYCE[dP]DWLTWE([Apr-DOTA])C-NH2 (linker 3-12 via mXylylene; reading uncertain) [3BP-3873], the pKD in test [1] is more than 8 pkd. Further, the “t1/2 (half-life of the complex, SPR)” value in test [2] lay within 5.1 to 15 min.

Molecule Ac-VFCE[dP]DWLTWE([Apr-DOTA])C-NH2 (linker 3-12 via mXylylene; reading uncertain) [3BP-3874] gave a pKD in test [1] of more than 8 pkd. For the same molecule, the “t1/2 (half-life of the complex, SPR)” value in test [2] lay in the range of 5.1 to 15 min.

B5: 3BP-3328 (peptide)
peptide: VYCEGDWLTWQC-NH2
modifications: linker 3-12 via mXylylene; not fully specified (N-terminus); also: indium complexed by DOTA
As for B5, the pKD in test [1] was more than 8 pkd. Also, the “t1/2 (half-life of the complex, SPR)” value in test [2] was 5.1 to 15 min.

Consider {DOTA-APAc}-VSCE[dP]DWLTWSC-NH2 (linker 3-12 via mXylylene; reading uncertain) [3BP-4105], for which, in test [1], the pKD is more than 8 pkd. The “t1/2 (half-life of the complex, SPR)” value in test [2] is 5.1 to 15 min.

B6: 3BP-4337 (peptide)
peptide: VDCE[dP]DWLTW[Dap]C-NH2
modifications: lactam 2-11; linker 3-12 via mXylylene; not fully specified (N-terminus); also: indium complexed by DOTA
Molecule B6 came in with a pKD in test [1] of more than 8 pkd. In test [3], the “t1/2 (half-life of the complex, SPR)” value was more than 15 min.

B7: 3BP-3281 (peptide)
peptide: Ac-VYCE[dNMeA]DWLTWAC-NH2
modifications: linker 3-12 via mXylylene
SMILES: CC(=O)N[C@H](C(=O)N[C@@H](Cc1ccc(O)cc1)C(=O)N[C@H]1CSCc2cccc(c2)CSC[C@@H](C(N)=O)NC(=O)[C@H](C)NC(=O)[C@H](Cc2c[nH]c3ccccc23)NC(=O)[C@H]([C@@H](C)O)NC(=O)[C@H](CC(C)C)NC(=O)[C@H](Cc2c[nH]c3ccccc23)NC(=O)[C@H](CC(=O)O)NC(=O)[C@@H](C)N(C)C(=O)[C@H](CCC(=O)O)NC1=O)C(C)C
B7 registered a pKD in test [1] of more than 8 pkd. Moreover, in test [2], the “t1/2 (half-life of the complex, SPR)” value was 5.1 to 15 min.

{DOTA-APAc}-VYCE[dmo]DWLTWSC-NH2 (linker 3-12 via mXylylene; reading uncertain) [3BP-4097] returned a pKD in test [1] of more than 8 pkd. For the same molecule, the “t1/2 (half-life of the complex, SPR)” value in test [2] was 5.1 to 15 min.
